Test results as given in publication PMC4069020, “A 14.7 kDa Protein from Francisella tularensis subsp. novicida (Named FTN_1133), Involved in the Response to Oxidative Stress Induced by Organic Peroxides, Is Not Endowed with Thiol-Dependent Peroxidase Activity” (PLoS ONE, 2014).

Target: the molecule itself
Assay: non-reducing SDS-PAGE

B1: FTN_1133 (14.7 kDa protein from Francisella tularensis subsp. novicida), recombinant His-tagged (natural protein)
chain: MAISQNVIKILQDIDELDLFSNISDEWSTLLNESDDNIKIKKLYSALVKESIRRETAERLAKDAKSYCDLVQEQAKQRISDLKESLESQITFLTQQIKDLKVESAKNLDYYRNELKKANRSLIDNKS
notes: also called His-FTN_1133
stoichiometry N: 2
